In the supplement of paper PMC10567573:

B1: C1orf137 (parent)
chain: LPQETNLTLKVCKPQAPQKLDPTL
B2: PRAME (parent)
chain: KKLKIFAMPMQDIKMILKMVQLDS

Variants of: B1
Assay: protein stability index of a GFP-peptide fusion (GPS, HEK-293T) (PSI 1-6); higher = more stable
Settings: c terminus: a fixed tail appended
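Note: lentivirally expressed fusions sorted by FACS into six bins by GFP to DsRed ratio, PSI derived from sequencing read proportions per bin multiplied by bin number.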

In order of falling protein stability index:
1. V11E  5.09
2. C12A  5.06
3. L7D  4.94
4. L9D  4.92
5. V11D  4.91
6. K13D  4.88
7. C12G  4.81
8. L1E  4.8
9. L7E  4.79
10. C12D  4.79
11. L9E  4.76
12. L1D  4.73
13. C12P  4.73
14. K13E  4.69
15. L9T  4.67
16. L7R  4.67
17. L7N  4.66
18. C12H  4.66
19. L1P  4.65
20. C12T  4.62
21. L7K  4.61
22. K10A  4.61
23. N6G  4.6
24. L9Q  4.59
25. T5P  4.59
26. Q3E  4.59
27. L9R  4.58
28. L7Q  4.56
29. K10D  4.56
30. T8G  4.55
31. L9N  4.54
32. V11P  4.54
33. T8P  4.53
34. L7H  4.51
35. K10E  4.5
36. L7G  4.48
37. L1S  4.46
38. L1T  4.44
39. K13P  4.43
40. C12K  4.43
41. L7P  4.42
42. C12E  4.39
43. T5D  4.38
44. N6D  4.38
45. L1Q  4.38
46. K10N  4.37
47. L9Y  4.35
48. L7S  4.35
49. L1V  4.34
50. L7T  4.33
51. K13G  4.33
52. T5Q  4.33
53. Q3D  4.33
54. L9G  4.32
55. C12N  4.31
56. T8A  4.3
57. T8S  4.3
58. Q3A  4.3
59. P2D  4.3
60. C12W  4.28
61. L7A  4.25
62. L7M  4.25
63. N6H  4.23
64. E4P  4.22
65. L7V  4.21
66. T8Q  4.21
67. V11N  4.21
68. T5E  4.2
69. V11S  4.19
70. P2E  4.18
71. K10P  4.17
72. Q3T  4.17
73. L9K  4.16
74. T8C  4.15
75. N6E  4.15
76. L9A  4.14
77. L9V  4.14
78. T8E  4.14
79. K13S  4.14
80. K13Q  4.14
81. C12R  4.14
82. Q3C  4.12
83. V11A  4.12
84. T8N  4.11
85. C12Q  4.1
86. V11H  4.08
87. C12S  4.07
88. C12M  4.07
89. K13T  4.06
90. L1A  4.06
91. C12L  4.06
92. L9F  4.05
93. L1M  4.04
94. L9M  4.03
95. K13N  4.03
96. T5A  4.02
97. K10S  4.01
98. L9I  4
99. T5H  4
100. L1C  4
101. K13A  3.98
102. L1W  3.98
103. L1I  3.97
104. Q3K  3.96
105. V11C  3.96
106. T8L  3.95
107. N6Q  3.94
108. E4N  3.94
109. L1K  3.93
110. P2T  3.92
111. L9C  3.91
112. T5S  3.9
113. C12I  3.9
114. L7Y  3.89
115. T8H  3.88
116. N6A  3.88
117. P2A  3.84
118. V11Y  3.82
119. Q3S  3.8
120. Q3P  3.79
121. P2G  3.79
122. L9H  3.78
123. K10G  3.78
124. L1N  3.77
125. V11M  3.77
126. E4A  3.77
127. P2Q  3.76
128. T5G  3.75
129. E4Q  3.74
130. Q3V  3.73
131. N6T  3.71
132. E4D  3.7
133. C12F  3.7
134. L9P  3.69
135. T8M  3.69
136. T5N  3.69
137. K10C  3.66
138. V11T  3.66
139. K10Q  3.65
140. V11K  3.65
141. C12V  3.65
142. T5K  3.64
143. C12Y  3.64
144. L9S  3.63
145. Q3G  3.63
146. T5R  3.6
147. Q3M  3.6
148. Q3H  3.6
149. E4T  3.59
150. T5M  3.58
151. Q3L  3.58
152. T8R  3.57
153. T8K  3.57
154. N6L  3.57
155. K13H  3.56
156. N6S  3.56
157. V11L  3.55
158. L7C  3.53
159. Q3N  3.53
160. P2H  3.5
161. P2I  3.49
162. K10H  3.48
163. L1R  3.48
164. K10T  3.46
165. P2N  3.46
166. E4K  3.46
167. K13V  3.42
168. V11G  3.42
169. L7I  3.4
170. N6F  3.36
171. L1H  3.36
172. E4G  3.36
173. Q3Y  3.34
174. V11Q  3.32
175. N6R  3.31
176. N6C  3.3
177. N6V  3.29
178. Q3R  3.29
179. N6K  3.27
180. P2C  3.27
181. K13C  3.24
182. V11I  3.24
183. N6M  3.22
184. V11F  3.22
185. T8D  3.21
186. N6W  3.2
187. L9W  3.15
188. P2Y  3.14
189. P2V  3.13
190. E4S  3.12
191. Q3I  3.1
192. Q3F  3.08
193. E4H  3.08
194. P2K  3.06
195. K13M  3.05
196. V11R  3.05
197. T5V  3.04
198. L1Y  3.04
199. K10R  3.03
200. E4V  3.03
201. K13R  3.01
202. T5C  2.99
203. N6Y  2.99
204. K10Y  2.98
205. T8Y  2.98
206. E4Y  2.98
207. K13L  2.96
208. K10M  2.95
209. L7F  2.92
210. T8V  2.92
211. T8F  2.9
212. T5Y  2.88
213. P2R  2.88
214. P2F  2.85
215. E4M  2.82
216. P2S  2.8
217. L1F  2.79
218. T5F  2.77
219. K10V  2.7
220. T5L  2.69
221. P2L  2.65
222. T8W  2.64
223. E4R  2.64
224. T5I  2.6
225. E4L  2.6
226. K10L  2.55
227. Q3W  2.54
228. E4I  2.51
229. V11W  2.44
230. E4F  2.44
231. N6I  2.42
232. T8I  2.37
233. E4C  2.37
234. K13I  2.33
235. E4W  2.32
236. K13W  2.25
237. P2M  2.23
238. K10F  2.18
239. K10W  2.17
240. P2W  2.16
241. K10I  2.13
242. K13F  2.11

Variants of: B2
Assay: as above
Settings: c terminus: a fixed tail appended

In order of rising protein stability index:
1. L22A  1.13
2. L22M  1.42
3. K18P  1.56
4. M19P  1.69
5. L22C  1.88
6. S24P  1.9
7. D23M  1.94
8. L22K  1.95
9. Q21W  1.98
10. K18N  1.99
11. V20S  2.01
12. S24Q  2.02
13. Q21E  2.03
14. M19D  2.13
15. M19G  2.15
16. K18Q  2.18
17. D23N  2.18
18. K18S  2.19
19. V20D  2.19
20. M19N  2.21
21. V20Y  2.21
22. K18D  2.22
23. V20P  2.22
24. V20N  2.32
25. Q21M  2.33
26. V20E  2.33
27. D23I  2.33
28. V20R  2.37
29. S24T  2.39
30. D23K  2.4
31. K18T  2.42
32. S24K  2.42
33. M19S  2.44
34. M19W  2.46
35. M19F  2.46
36. S24G  2.47
37. S24I  2.49
38. S24V  2.5
39. L22Q  2.51
40. V20C  2.55
41. L22Y  2.57
42. D23W  2.58
43. M19H  2.59
44. K18Y  2.62
45. K18H  2.65
46. K18M  2.67
47. Q21I  2.69
48. M19I  2.81
49. Q21N  2.82
50. L22R  2.83
51. S24F  2.85
52. D23T  2.86
53. S24N  2.87
54. M19Q  2.89
55. V20Q  2.9
56. S24H  2.91
57. V20F  2.98
58. K18L  3.04
59. D23P  3.05
60. D23L  3.12
61. Q21K  3.17
62. Q21C  3.19
63. K18F  3.27
64. L22H  3.28
65. Q21A  3.36
66. M19T  3.38
67. Q21T  3.42
68. L22P  3.45
69. S24A  3.45
70. K18G  3.49
71. V20A  3.51
72. V20H  3.51
73. M19C  3.53
74. K18R  3.54
75. D23F  3.54
76. S24R  3.56
77. D23E  3.61
78. L22V  3.63
79. Q21G  3.64
80. K18E  3.69
81. S24M  3.73
82. D23S  3.79
83. L22I  3.88
84. V20T  3.9
85. Q21P  3.91
86. K18W  3.98
87. S24E  4.07
88. V20K  4.07
89. V20I  4.22
90. S24D  4.26
91. K18V  4.3
92. L22D  4.71
